ChEMBL document CHEMBL4382202, “1-(2-Hydroxybenzoyl)-thiosemicarbazides are promising antimicrobial agents targeting d-alanine-d-alanine ligase in bacterio” (Eur J Med Chem, 2018)

Experiments:
[1] = compound: O=C(NNC(=S)Nc1ccc(Cl)c(Cl)c1)c1ccccc1O; experiment: Inhibition of Enterococcus faecalis JH2-2 C-terminal 6His-tagged DdlB expressed in Escherichia coli LMG194 assessed as Km1 of D-Ala using 500 uM ATP by Biomol Green reagent assay
[2] = compound: O=C(NNC(=S)Nc1ccc(Cl)c(Cl)c1)c1ccccc1O; experiment: Inhibition of Enterococcus faecalis JH2-2 C-terminal 6His-tagged DdlB expressed in Escherichia coli LMG194 assessed as Km2 of D-Ala using 500 uM ATP by Biomol Green reagent assay
[3] = compound: O=C(NNC(=S)Nc1ccc(Cl)c(Cl)c1)c1ccccc1O; experiment: Inhibition of Enterococcus faecalis JH2-2 C-terminal 6His-tagged DdlB expressed in Escherichia coli LMG194 assessed as Km of ATP using 50 mM D-Ala substrate by Biomol Green reagent assay
[4] = compound: O=C(NNC(=S)Nc1ccc(Cl)c(Cl)c1)c1ccccc1O; experiment: Inhibition of Enterococcus faecalis JH2-2 C-terminal 6His-tagged DdlB expressed in Escherichia coli LMG194 assessed as Vmax of D-Ala at 1 uM by Biomol Green reagent assay (reference value: 61.95 +/- 1.11 microM/min)
[5] = compound: O=C(NNC(=S)Nc1ccc(Cl)c(Cl)c1)c1ccccc1O; experiment: Inhibition of Enterococcus faecalis JH2-2 C-terminal 6His-tagged DdlB expressed in Escherichia coli LMG194 assessed as Vmax of D-Ala at 10 uM by Biomol Green reagent assay (reference value: 61.95 +/- 1.11 microM/min)
[6] = compound: O=C(NNC(=S)Nc1ccc(Cl)c(Cl)c1)c1ccccc1O; experiment: Inhibition of Enterococcus faecalis JH2-2 C-terminal 6His-tagged DdlB expressed in Escherichia coli LMG194 assessed as Km of D-Ala at 1 uM by Biomol Green reagent assay (reference value: 5.62 mM)
[7] = compound: O=C(NNC(=S)Nc1ccc(Cl)c(Cl)c1)c1ccccc1O; experiment: Inhibition of Enterococcus faecalis JH2-2 C-terminal 6His-tagged DdlB expressed in Escherichia coli LMG194 assessed as Km of D-Ala at 10 uM by Biomol Green reagent assay (reference value: 5.62 mM)
[8] = compound: O=C(NNC(=S)Nc1ccc(Cl)c(Cl)c1)c1ccccc1O; experiment: Inhibition of Enterococcus faecalis JH2-2 C-terminal 6His-tagged DdlB expressed in Escherichia coli LMG194 assessed as Vmax of ATP at 1 uM by Biomol Green reagent assay (reference value: 89.05 +/- 5.41 microM/min)
[9] = compound: O=C(NNC(=S)Nc1ccc(Cl)c(Cl)c1)c1ccccc1O; experiment: Inhibition of Enterococcus faecalis JH2-2 C-terminal 6His-tagged DdlB expressed in Escherichia coli LMG194 assessed as Vmax of ATP at 10 uM by Biomol Green reagent assay (reference value: 89.05 +/- 5.41 microM/min)

B1: D-alanine--D-alanine ligase (Enterococcus faecalis (strain ATCC 700802 / V583)), Q47758 (protein)
chain: MKIILLYGGRSEEHDVSVLSAYSVLNAIYYKYYQVQLVFISKDGQWVKGPLLSERPQNKEVLHLTWAQTPEETGEFSGKRISPSEIYEEEAIVFPVLHGPNGEDGTIQGFMETINMPYVGAGVLASANAMDKIMTKYLLQTVGIPQVPFVPVLRSDWKGNPKEVFEKCEGSLIYPVFVKPANMGSSVGISKVENREELQEALEEAFRYDARAIVEQGIEAREIEVAILGNEDVRTTLPGEVVKDVAFYDYDAKYINNTIEMQIPAHVPEEVAHQAQEYAKKAYIMLDGSGLSRCDFFLTSKNELFLNELNTMPGFTDFSMYPLLWENMGLKYSDLIEELIQLALNRFK
Km [1]: 0.487 mM
Km [2]: 10.5 mM
Km [3]: 0.691 mM
Vmax [4]: 48.6 µM/min
Vmax [5]: 45.1 µM/min
Km [6]: 7.01 mM
Km [7]: 9.63 mM
Vmax [8]: 72.1 µM/min
Vmax [9]: 23.5 µM/min
